PMC3438196

What was measured:
Experiment in all cases: two-hybrid; MAPPIT (mammalian two-hybrid) in intact HEK293T cells: bait on the EpoR/leptin receptor chimera, prey on gp130 fragments, pXP2d2-rPAP1-luciferase reporter; fold induction of luciferase, Epo-stimulated (10 ng/ml hEpo) over unstimulated; 6-well or 96-well calcium phosphate transfection
[1] = biological target: Apobec3G D128H MAPPIT bait (human) (UniProt Q9HC16)
[2] = biological target: Apobec3G E110S MAPPIT bait (human) (UniProt Q9HC16)
Sequence of Apobec3G E110S MAPPIT bait (human) (Q9HC16 whole entry E110S): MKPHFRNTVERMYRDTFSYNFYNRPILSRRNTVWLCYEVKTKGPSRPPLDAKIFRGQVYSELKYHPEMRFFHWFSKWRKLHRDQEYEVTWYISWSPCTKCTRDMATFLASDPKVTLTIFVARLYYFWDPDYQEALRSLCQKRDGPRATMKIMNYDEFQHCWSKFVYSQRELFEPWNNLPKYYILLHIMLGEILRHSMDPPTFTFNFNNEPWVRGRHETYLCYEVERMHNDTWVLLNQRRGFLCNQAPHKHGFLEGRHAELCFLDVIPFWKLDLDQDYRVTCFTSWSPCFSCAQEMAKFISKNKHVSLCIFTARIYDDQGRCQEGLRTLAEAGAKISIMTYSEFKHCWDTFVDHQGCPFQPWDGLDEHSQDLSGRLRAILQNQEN

[3] = biological target: Apobec3G K63E MAPPIT bait (human) (UniProt Q9HC16)
Sequence of Apobec3G K63E MAPPIT bait (human) (Q9HC16 whole entry K63E): as the sequence (Q9HC16 whole entry E110S) above, with K63E, S110E counted along it

[4] = biological target: Apobec3G K99D MAPPIT bait (human) (UniProt Q9HC16)
Sequence of Apobec3G K99D MAPPIT bait (human) (Q9HC16 whole entry K99D): as the sequence (Q9HC16 whole entry E110S) above, with K99D, S110E counted along it

[5] = biological target: Apobec3G L184A MAPPIT bait (human) (UniProt Q9HC16)
Sequence of Apobec3G L184A MAPPIT bait (human) (Q9HC16 whole entry L184A): as the sequence (Q9HC16 whole entry E110S) above, with S110E, L184A counted along it

[6] = biological target: Apobec3G M12A MAPPIT bait (human) (UniProt Q9HC16)
Sequence of Apobec3G M12A MAPPIT bait (human) (Q9HC16 whole entry M12A): as the sequence (Q9HC16 whole entry E110S) above, with M12A, S110E counted along it

[7] = biological target: Apobec3G N20A MAPPIT bait (human) (UniProt Q9HC16)
Sequence of Apobec3G N20A MAPPIT bait (human) (Q9HC16 whole entry N20A): as the sequence (Q9HC16 whole entry E110S) above, with N20A, S110E counted along it

[8] = biological target: Apobec3G QE132-133AA MAPPIT bait (human) (UniProt Q9HC16)
Sequence of Apobec3G QE132-133AA MAPPIT bait (human) (Q9HC16 whole entry Q132A/E133A): as the sequence (Q9HC16 whole entry E110S) above, with S110E, Q132A, E133A counted along it

[9] = biological target: Apobec3G R55A MAPPIT bait (human) (UniProt Q9HC16)
Sequence of Apobec3G R55A MAPPIT bait (human) (Q9HC16 whole entry R55A): as the sequence (Q9HC16 whole entry E110S) above, with R55A, S110E counted along it

[10] = biological target: Apobec3G RD102-103EK MAPPIT bait (human) (UniProt Q9HC16)
Sequence of Apobec3G RD102-103EK MAPPIT bait (human) (Q9HC16 whole entry R102E/D103K): as the sequence (Q9HC16 whole entry E110S) above, with R102E, D103K, S110E counted along it

[11] = biological target: Apobec3G RD102-103SS MAPPIT bait (human) (UniProt Q9HC16)
Sequence of Apobec3G RD102-103SS MAPPIT bait (human) (Q9HC16 whole entry R102S/D103S): as the sequence (Q9HC16 whole entry E110S) above, with R102S, D103S, S110E counted along it

[12] = biological target: Apobec3G S137A MAPPIT bait (human) (UniProt Q9HC16)
Sequence of Apobec3G S137A MAPPIT bait (human) (Q9HC16 whole entry S137A): as the sequence (Q9HC16 whole entry E110S) above, with S110E, S137A counted along it

[13] = biological target: Apobec3G TK98-99AD MAPPIT bait (human) (UniProt Q9HC16)
Sequence of Apobec3G TK98-99AD MAPPIT bait (human) (Q9HC16 whole entry T98A/K99D): as the sequence (Q9HC16 whole entry E110S) above, with T98A, K99D, S110E counted along it

[14] = biological target: Apobec3G TK98-99AS MAPPIT bait (human) (UniProt Q9HC16)
Sequence of Apobec3G TK98-99AS MAPPIT bait (human) (Q9HC16 whole entry T98A/K99S): as the sequence (Q9HC16 whole entry E110S) above, with T98A, K99S, S110E counted along it

[15] = biological target: Apobec3G V9A MAPPIT bait (human) (UniProt Q9HC16)
Sequence of Apobec3G V9A MAPPIT bait (human) (Q9HC16 whole entry V9A): as the sequence (Q9HC16 whole entry E110S) above, with V9A, S110E counted along it

[16] = biological target: Apobec3G YS166-167AA MAPPIT bait (human) (UniProt Q9HC16)
Sequence of Apobec3G YS166-167AA MAPPIT bait (human) (Q9HC16 whole entry Y166A/S167A): as the sequence (Q9HC16 whole entry E110S) above, with S110E, Y166A, S167A counted along it

Sequence of Apobec3G D128H MAPPIT bait (human) (Q9HC16 whole entry D128H): as the sequence (Q9HC16 whole entry E110S) above, with S110E, D128H counted along it

## Gagpol MAPPIT prey (pMG2-Gagpol) (natural protein)
[1]
  MAPPIT signal, % of WT: 60 % of WT
[2]
  MAPPIT signal, % of WT: 80 % of WT
[3]
  MAPPIT signal, % of WT: 104 % of WT
[4]
  MAPPIT signal, % of WT: 96 % of WT
[5]
  MAPPIT signal, % of WT: 110 % of WT
[6]
  MAPPIT signal, % of WT: 25 % of WT
[7]
  MAPPIT signal, % of WT: 71 % of WT
[8]
  MAPPIT signal, % of WT: 80 % of WT
[9]
  MAPPIT signal, % of WT: 64 % of WT
[10]
  MAPPIT signal, % of WT: 85 % of WT
[11]
  MAPPIT signal, % of WT: 63 % of WT
[12]
  MAPPIT signal, % of WT: 127 % of WT
[13]
  MAPPIT signal, % of WT: 74 % of WT
[14]
  MAPPIT signal, % of WT: 79 % of WT
[15]
  MAPPIT signal, % of WT: 101 % of WT
[16]
  MAPPIT signal, % of WT: 80 % of WT
